Experimental findings from patent US20260317434 (published 2026) are described below.

Assay [1] deals with human IL1RAP ectodomain (aa21-367) (human, UniProt Q9NPH3). Kind of assay: BLI.
The target of a further assay is T1, rat IL1RAP (rat, UniProt Q63621).
T1 chain: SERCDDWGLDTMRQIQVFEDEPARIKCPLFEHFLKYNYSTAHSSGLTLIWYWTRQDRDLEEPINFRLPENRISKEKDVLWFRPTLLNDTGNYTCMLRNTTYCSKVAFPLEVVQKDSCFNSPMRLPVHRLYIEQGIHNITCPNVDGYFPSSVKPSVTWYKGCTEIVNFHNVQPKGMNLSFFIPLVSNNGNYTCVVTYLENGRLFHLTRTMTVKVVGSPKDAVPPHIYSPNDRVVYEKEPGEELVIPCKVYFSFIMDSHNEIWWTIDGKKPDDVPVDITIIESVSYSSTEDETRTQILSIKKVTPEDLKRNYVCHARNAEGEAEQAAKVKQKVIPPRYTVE
Kind of assay: ELISA.

A further assay deals with T2, mouse IL1RAP (mouse, UniProt Q61730).
T2 chain: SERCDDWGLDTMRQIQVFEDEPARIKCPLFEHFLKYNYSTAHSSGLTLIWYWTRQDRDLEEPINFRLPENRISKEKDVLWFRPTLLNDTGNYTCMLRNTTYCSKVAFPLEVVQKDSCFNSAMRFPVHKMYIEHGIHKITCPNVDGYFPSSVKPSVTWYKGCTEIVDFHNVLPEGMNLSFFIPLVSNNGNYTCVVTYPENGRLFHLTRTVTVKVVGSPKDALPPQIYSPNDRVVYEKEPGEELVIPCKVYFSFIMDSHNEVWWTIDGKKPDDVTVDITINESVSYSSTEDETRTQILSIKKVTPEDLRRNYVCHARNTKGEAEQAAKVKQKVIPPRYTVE
As to the kind of experiment: ELISA. For orientation: An ELISA detects its analyte on a solid surface through an enzyme-linked reagent.

Assay [2] deals with human IL1RAP Domain1+2 (aa21-234) (human, UniProt Q9NPH3). Kind of assay: ELISA.

B1: 3G5 (antibody, V domains shown)
VH: EVQLVESGGVLVKPGGSLKLSCAASGFTFSDYAMSWVRQTPEKRLEWVATITDGGSYAYYTDDVKGRFTVSRDNARNNLFLQMSHLRSEDTGIYYCSRDRWPYYFDFWGRGTTLTVSS
VL: DIQMTQSPTSLSVSVGETVTITCRISENIYSNLAWYQQKEGKSPQLLVYAATKLADGVPSRFSGSGSGTQYSLKINSLQSEDFGNYYCQHFWTTPRTFGGGTKVEIK
In the case of B1, the Kd in assay [1] was found to be 0.285 nM. In addition, the binding result (with rat IL1RAP; in the assay with mouse IL1RAP; in assay [2]) was “no binding” each time.

B2: 48A5 (antibody, V domains shown)
VH: QEQLEESEGGLFKPTETLTLTCTVSGFSLSYDITWVRQAPGNGLEWIGTIDTSSNTYHATWAKSRSTITKNTNLNTVTLKMTSLTAADTATYFCARGGVHAYAYAPAAFDPWGPGTLVTISS
VL: APVLTQTPSPVSAAVGGTVTISCQSSQSVYNDAYLAWYQQKPGQPPKLLIYLASTLASGVPSRFSGSGSGTQFTLTISGVQCEDAATYYCQGAYYSNDWYYVFGGGTEVVVK
Take B2: the binding result (with rat IL1RAP; with mouse IL1RAP; in assay [2]) was “no binding” throughout.

B3: 43F5 (antibody, V domains shown)
VH: QSLEESGGRLVTPGTPLTLTCKASGFSLSNYWMSWVRQAPGKGLEWIGFITSSDNTYYASWAKGRFTISKASSTTVGLKMTSPTTEDTATYFCARDISGINSVVLWGQGTLVTVSS
VL: DVVMTQTPASVSEPVGGTVTINCQASQSIDSYLSWYQQKPGQPPKFLIYGASNLASGVPSRFKGSRSGTEYTLTISDLECADAATYYCQCTDYSINYIGAFGGGTKVVVE
Regarding B3, in assay [2], the binding result is on record as “no binding”.

The Kd is a measure of binding affinity in units of concentration. Lower therefore signals tighter binding.
